Assay results taken from patent US20050260693A1 (MOUNT SINAI SCHOOL OF MEDICINE, published 2005).
Numbering of substitutions follows the chain as printed. Values belong to the molecule of their own block, whether it stands above or below them. Where no end group is shown, it is not given here. [ ]: non-standard residue; d: D form. pS = N[C@@H](COP(=O)(O)O)C(=O)O

Experiments:
[1] = system: T1, GST-322 prephosphorylated by PKC; assay: GST pull-down of PKC with phosphatidylserine; against the unphosphorylated fusion protein
T1 sequence: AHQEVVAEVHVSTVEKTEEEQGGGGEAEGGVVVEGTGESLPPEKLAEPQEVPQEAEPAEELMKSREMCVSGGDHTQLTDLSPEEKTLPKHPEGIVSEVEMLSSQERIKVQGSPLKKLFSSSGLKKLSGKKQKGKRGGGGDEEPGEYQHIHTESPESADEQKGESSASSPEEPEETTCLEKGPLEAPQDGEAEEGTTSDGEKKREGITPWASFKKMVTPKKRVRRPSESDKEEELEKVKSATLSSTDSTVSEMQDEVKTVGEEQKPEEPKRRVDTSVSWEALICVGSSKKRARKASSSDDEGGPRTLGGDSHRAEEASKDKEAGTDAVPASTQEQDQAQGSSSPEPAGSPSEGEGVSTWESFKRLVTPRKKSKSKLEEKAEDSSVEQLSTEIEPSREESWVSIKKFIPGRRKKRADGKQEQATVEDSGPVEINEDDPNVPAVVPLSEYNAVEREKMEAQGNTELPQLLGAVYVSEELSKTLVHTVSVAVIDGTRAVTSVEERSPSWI

[2] = system: T2, GST-322 fusion protein
T2 sequence: T1 sequence

[3] = biological target: cyclin D1 (endogenous and ectopic) of S24, S24/D1, S24/V and V3 cells (UniProt P25322); assay: GST pull-down with mutated GST-SSeCKS2
Sequence of cyclin D1 (endogenous and ectopic) of S24, S24/D1, S24/V and V3 cells (UniProt P25322) (P25322 whole entry): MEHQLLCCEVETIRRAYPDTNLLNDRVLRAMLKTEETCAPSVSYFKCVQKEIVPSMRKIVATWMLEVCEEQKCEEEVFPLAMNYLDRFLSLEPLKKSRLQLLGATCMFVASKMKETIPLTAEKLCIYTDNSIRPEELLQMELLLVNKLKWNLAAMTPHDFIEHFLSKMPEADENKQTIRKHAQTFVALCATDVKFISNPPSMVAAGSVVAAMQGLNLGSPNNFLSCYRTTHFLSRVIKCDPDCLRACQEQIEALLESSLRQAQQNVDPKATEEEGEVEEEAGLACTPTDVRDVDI

[4] = biological target: T3, cyclin D1 (endogenous and ectopic) of S24, S24/D1, S24/V and V3 cells (UniProt P25322 1-295); assay: cell-based or functional assay
T3 sequence (P25322 whole entry): as above

[5] = biological target: T3, cyclin D1 (endogenous and ectopic) of …; assay: cell-based or functional assay; remark: listed apart in the source

Molecule: purified rabbit brain PKC
- fold decrease of binding after prephosphorylation by PKC [1]: Prephosphorylation of GST-322 by PKC decreases this binding at least 10-fold
- in vitro phosphorylation by PKC ([32P]ATP, SDS-PAGE and autoradiography) [2]: purified rat brain PKC containing α, β, and δ isoforms could phosphorylate GST-322 protein in vitro

- reduction of cyclin D1 binding against wild-type GST-SSeCKS2 [3]: 70%
B1: GST-SSeCKS2 with upstream KK mutated to SS (protein, not shown: a dimerising Fc or GST)
chain: AHQEVVAEVHVSTVEKTEEEQGGGGEAEGGVVVEGTGESLPPEKLAEPQEVPQEAEPAEELMKSREMCVSGGDHTQLTDLSPEEKTLPKHPEGIVSEVEMLSSQERIKVQGSPLSSLFSSSGLKKLSGKKQKGKRGGGGDEEPGEYQHIHTESPESADEQKGES

- reduction of cyclin D1 binding against wild-type GST-SSeCKS2 [3]: 70%
B2: GST-SSeCKS2 with downstream KK mutated to SS (protein, not shown: a dimerising Fc or GST)
chain: B1 chain with S115K, S116K, K124S, K125S

- % of cells showing nuclear staining of cyclin D1, S24/D1, -TET, peptide 100 µg/ml for 4 h [4]: 39%
Molecule: RQIKIWFQNRRMKWKKLKKLF[pS]SSGLKKL[pS]GK (also: N-terminal biotin on half of the product) [penetratin-linked phosphoserine CY peptide]

- increase in cyclin D translocation to nuclei, S24/D1 cells incubated 4 h with peptide [5]: ~2 fold
- % of cells showing nuclear staining of cyclin D1, S24/D1, -TET, peptide 100 µg/ml for 4 h [4]: 82%
Molecule: RQIKIWFQNRRMKWKKLKKLFSSSGLKKLSGK (also: N-terminal biotin on half of the product) [penetratin-linked wt SSeCKS CY peptide]

- % of cells showing nuclear staining of cyclin D1, S24/D1, -TET, peptide 100 µg/ml for 4 h [4]: 30%
Molecule: RQIKIWFQNRRMKWKKLSSSFSSSGLSSSSGK (also: N-terminal biotin on half of the product) [penetratin-linked mutated CY peptide (K→S)]
